Results as given in patent US20240108746A1 (Molecular Partners, published 2024).
Several values for one entry are separate records, joined by “and”; a condition that tells them apart may be missing. Equal values may be shown once.

B1: Binder #10 (designed binder)
chain: MRGSHHHHHHGSDLGKKLLQAARAGQLDEVRELLKAGADVNAKDHYGWTPLHLAASEGHLEIVEVLLKAGADVNAKDWIGWTPLHLAASFGHLEIVEVLLKAGADVNAKDVSGKTPLHIAARQGHLEIVEVLLKAGADVNAQDKSGKTPADLAARAGHQDIAEVLQKAA
B2: Binder #7 (designed binder)
chain: MRGSHHHHHHGSDLGKKLLQAARAGQLDEVRELLKAGADVNAKDHYGWTPLHLAAAEGHLEIVEVLLKAGADVNAKDWIGYTPLHIAASHGHLEIVEVLLKAGADVNAKDSSGKTPLHIAAQHGHLEIVEVLLKAGADVNAQDKSGKTPADLAARAGHQDIAEVLQKAA
B3: Binder #6 (designed binder)
chain: MRGSHHHHHHGSDLGKKLLQAARAGQLDEVRELLKAGADVNAKDQYGWTPLHLAAYSGHLEIVEVLLKAGADVNAKDWVGWTPLHLAASHGHLEIVEVLLKAGADVNAKDEAGRTPLHIAAKQGHLEIVEVLLKAGADVNAQDKSGKTPADLAARAGHQDIAEVLQKAA
B4: Binder #5 (designed binder)
chain: MRGSHHHHHHGSDLGKKLLQAARAGQLDEVRELLKAGADVNAKDHYGWTPLHIAAQIGHLEIVEVLLKAGADVNAKDWIGYTPLHLAASHGHLEIVEVLLKAGADVNAKDVSGKTPLHVAAAHGHLEIVEVLLKAGADVNAQDKSGKTPADLAARAGHQDIAEVLQKAA
B5: Binder #8 (designed binder)
chain: MRGSHHHHHHGSDLGKKLLQAARAGQLDEVRELLKAGADVNAKDHYGWTPLHIAAQRGHLEIVEVLLKAGADVNAKDWLGWTPLHVAASHGHLEIVEVLLKAGADVNAKDLSGRTPLHIAARQGHLEIVEVLLKAGADVNAQDKSGKTPADLAARAGHQDIAEVLQKAA
B6: Binder #9 (designed binder)
chain: MRGSHHHHHHGSDLGKKLLQAARAGQLDEVRELLKAGADVNAKDHYGWTPLHLAASEGHLEIVEVLLKAGADVNAKDWIGWTPLHLAASFGHLEIVEVLLKAGADVNAKDVSGKTPLHIAARQGHLEIVEVLLKAGADVNAQDKSGKTPADLAARAGHQDIAEVLQLQKAA
B7: Binder #2 (designed binder)
chain: MRGSHHHHHHGSDLGKKLLQAARAGQLDEVRELLKAGADVNAKDFKGLTPLHLAAAHGHLEIVEVLLKAGADVNAKDVYGWTPLHWAAASGHLEIVEVLLKAGADVNAKDWLGITPLHLAASHGHLEIVEVLLKAGADVNAQDKSGKTPADLAARAGHQDIAEVLQKAA
B8: Binder #1 (designed binder)
chain: MRGSHHHHHHGSDLGKKLLQAARAGQLDEVRELLKAGADVNAKDFKGLTPLHLAAAHGHLEIVEVLLKAGADVNAKDVYGWTPLHIAAASGHLEIVEVLLKAGADVNAKDWLGITPLHLAASHGHLEIVEVLLKAGADVNAQDKSGKTPADLAARAGHQDIAEVLQKAA
notes: expressed in E. coli and purified by its His-tag
B9: Binder #3 (designed binder)
chain: MRGSHHHHHHGSDLGKKLLQAARAGQLDEVRELLKAGADVNAKDFKGLTPLHLAAAHGHLEIVEVLLKAGADVNAKDVYGWTPLHWAAAKGHLEIVEVLLKAGADVNAKDWLGITPLHLAASHGHLEIVEVLLKAGADVNAQDKSGKTPADLAARAGHQDIAEVLQKAA
B10: Binder #4 (designed binder)
chain: MRGSHHHHHHGSDLGKKLLQAARAGQLDEVRELLKAGADVNAKDFKGLTPLHLAAEHGHLEIVEVLLKAGADVNAKDVYGWTPLHWAAAKGHLEIVEVLLKAGADVNAKDWLGITPLHLAASHGHLEIVEVLLKAGADVNAQDKSGKTPADLAARAGHQDIAEVLQKAA

How the values were obtained:
[1] = target: T1, Biotinylated CD3-specific binding domain SEQ ID NO: 13 (biotinylated (site not stated)); assay: SPR (comparable assays)
T1 construct: Ligand on the neutravidin (NLC) SPR chip; The same domain is the CD3-specific domain of TCE #1
T1 chain: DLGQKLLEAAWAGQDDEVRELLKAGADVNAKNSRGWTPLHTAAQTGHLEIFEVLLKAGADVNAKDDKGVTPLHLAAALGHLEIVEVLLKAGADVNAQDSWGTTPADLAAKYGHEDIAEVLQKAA

[2] = target: T2, Biotinylated CD3-specific binding domain SEQ ID NO: 14 (biotinylated (site not stated)); assay: SPR (comparable assays)
T2 construct: Ligand on the neutravidin (NLC) SPR chip
T2 chain: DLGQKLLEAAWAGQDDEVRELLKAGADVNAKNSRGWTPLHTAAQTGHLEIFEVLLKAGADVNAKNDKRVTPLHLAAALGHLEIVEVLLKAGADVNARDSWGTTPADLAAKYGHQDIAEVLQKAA

[3] = target: T3, TCE #2; assay: not stated (affinity to the CD3 binding domain of TCE #2); Binder #10, 1 pM or lower
T3 construct: also called α-HSA×α-CD123×α-CD33×α-CD3 T-cell engager; TCE (with a half-life extending moiety)
T3 chain: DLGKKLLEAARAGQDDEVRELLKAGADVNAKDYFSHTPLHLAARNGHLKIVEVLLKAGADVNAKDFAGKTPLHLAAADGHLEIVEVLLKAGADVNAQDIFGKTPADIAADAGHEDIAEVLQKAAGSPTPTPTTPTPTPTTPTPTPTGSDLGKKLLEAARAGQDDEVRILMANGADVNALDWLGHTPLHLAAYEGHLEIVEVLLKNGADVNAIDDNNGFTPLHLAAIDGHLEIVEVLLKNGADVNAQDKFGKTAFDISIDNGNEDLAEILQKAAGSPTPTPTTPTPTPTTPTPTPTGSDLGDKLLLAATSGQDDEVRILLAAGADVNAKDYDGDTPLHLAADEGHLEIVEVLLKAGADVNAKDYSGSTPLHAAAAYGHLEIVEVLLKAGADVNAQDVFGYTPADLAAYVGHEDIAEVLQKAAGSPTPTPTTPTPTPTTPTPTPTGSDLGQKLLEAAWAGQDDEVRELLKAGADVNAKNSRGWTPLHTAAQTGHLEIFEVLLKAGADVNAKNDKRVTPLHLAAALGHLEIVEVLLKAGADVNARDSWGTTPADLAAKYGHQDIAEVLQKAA

[4] = target: T1, Biotinylated CD3-specific binding …; assay: calculated from SPR koff (ln2/koff)
Method: (§1) Further SPR data were generated for Binders #1 to #9 (as listed in Example 1 above), binding to biotinylated CD3-specific binding domains having SEQ ID NOs: 13 and 14, respectively, on the chip. […] The blocking half-life (T_{1/2}) was then calculated.

[5] = target: T2, Biotinylated CD3-specific binding …; assay: calculated from SPR koff (ln2/koff)
Method: as §1

[6] = target: T1, Biotinylated CD3-specific binding …; assay: SPR (ProteOn XPR36), 33 C, multi-trace; biotinylated ligand on chip, binder as analyte
Method: as §1

[7] = target: T2, Biotinylated CD3-specific binding …; assay: as above
Method: as §1

[8] = target: T4, TCE #1; assay: cell-based or functional assay
T4 chain: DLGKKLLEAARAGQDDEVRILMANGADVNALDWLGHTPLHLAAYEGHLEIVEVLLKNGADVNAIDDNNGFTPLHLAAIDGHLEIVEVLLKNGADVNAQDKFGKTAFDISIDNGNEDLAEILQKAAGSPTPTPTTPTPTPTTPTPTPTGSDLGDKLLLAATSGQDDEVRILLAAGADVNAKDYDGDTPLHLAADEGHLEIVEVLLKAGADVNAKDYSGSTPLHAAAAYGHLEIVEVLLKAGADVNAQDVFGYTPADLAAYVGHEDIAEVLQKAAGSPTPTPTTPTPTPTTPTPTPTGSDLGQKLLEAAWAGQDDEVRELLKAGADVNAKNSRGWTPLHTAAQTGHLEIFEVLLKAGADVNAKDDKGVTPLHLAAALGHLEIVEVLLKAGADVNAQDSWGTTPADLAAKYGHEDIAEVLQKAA

[9] = target: T4, TCE #1; assay: cell-based or functional assay
[10] = target: T4, TCE #1; assay: not stated in the sentence (affinity quoted for the Incucyte experiment with TCE #1)
[11] = target: T4, TCE #1; assay: cell-based or functional assay
[12] = target: T5, CD3-specific binding domain (SEQ ID NO:11); assay: bead-immobilized scavenger protein in the sink chamber of the complex Incucyte assay
T5 construct: Immobilized on beads in the sink chamber of the 'complex' Incucyte assay; also the first selection target; also called immobilized scavenger protein; bead-immobilized target protein
T5 chain: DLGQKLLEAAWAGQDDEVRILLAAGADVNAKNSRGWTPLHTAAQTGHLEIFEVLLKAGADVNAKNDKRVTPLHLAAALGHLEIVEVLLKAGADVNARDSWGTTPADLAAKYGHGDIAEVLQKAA
Method: In the experiment described here, a TCE (TCE #1) was used as drug molecule.
As in Example 4, a tumor cell line expressing the TAA was used as target cell line which has been transduced with Incucyte Nuclight Red Lentivirus for detection by the Incucyte® camera. PanT-cells were added, together with different prodrug complexes. […] Additionally, unbound TCE #1 (10 pM) as well as background (i.e. no prodrug complex or TCE, but with beads) served as controls. Tumor cell growth was measured for a period of 5 days by determining the area of red objects detected by the Incucyte® camera.

[13] = target: T3, TCE #2; assay: not stated (affinity to the CD3 effector moiety of TCE #2)
[14] = target: T3, TCE #2; assay: not stated (affinity to the CD3 effector moiety of TCE #2); Binder #4, double-digit pM

Row | Binder | Blocking T1/2 [4] | Blocking T1/2 [5] | Kd [6] | koff [6] | Kd [7] | koff [7] | loss of inhibition of TCE activity (simple Incucyte assay) [8] | IC50, inhibition of TCE #1 (10 pM) mediated tumor cell killing (LDH release, OD492nm-620nm, 48 h) [9] | IC50, inhibition of TCE #1 (10 pM) mediated T-cell activation (CD25+ T-cells, % of CD8+, 48 h) [11] | kon [6] | kon [7] | also measured
1 | B1 |  |  |  |  |  |  |  |  |  |  |  | binding result [1]: binds; binding result [2]: binds; Kd [3]: ≤ 0.001 nM
2 | B2 | > 3.9 h | > 3.9 h | < 0.02 nM | < 5e-05 s⁻¹ | < 0.02 nM | < 5e-05 s⁻¹ |  |  |  |  |  | 
3 | B3 | > 3.9 h | > 3.9 h | < 0.02 nM | < 5e-05 s⁻¹ | < 0.02 nM | < 5e-05 s⁻¹ |  |  |  |  |  | 
4 | B4 | > 3.9 h | > 3.9 h | < 0.02 nM | < 5e-05 s⁻¹ | < 0.02 nM | < 5e-05 s⁻¹ | 1 molar ratio binder:TCE | 0.016 nM | 0.0184 nM |  |  | blocking of T-cell mediated tumor cell growth inhibition (simple Incucyte assay) [8]: 4 fold molar excess of binder over TCE; inhibition of TCE activity (simple Incucyte assay) [8]: 4 fold molar excess of binder over TCE; Kd [10]: ≤ 0.006 nM
5 | B5 | > 3.9 h | > 3.9 h | < 0.02 nM | < 5e-05 s⁻¹ | < 0.02 nM | < 5e-05 s⁻¹ |  |  |  |  |  | 
6 | B6 | > 3.9 h | > 3.9 h | < 0.02 nM | < 5e-05 s⁻¹ | < 0.02 nM | < 5e-05 s⁻¹ | 1 molar ratio binder:TCE | 0.0518 nM | 0.0838 nM |  |  | inhibition of TCE activity (complex Incucyte assay, functional sink chamber with beads coated with CD3-specific binding domain) [8]: 12.3 molar ratio binder:TCE; inhibition of TCE activity (complex Incucyte assay, sink chamber with non-coated beads) [8]: 1.37 molar ratio binder:TCE; inhibition of TCE activity (simple Incucyte assay) [8]: 1 molar ratio binder:TCE and 4 fold molar excess of binder over TCE; binding result [12]: binds
7 | B7 | 4.8 h | 9.6 h | 0.028 nM | 4e-05 s⁻¹ | 0.032 nM | 2e-05 s⁻¹ |  |  |  | 1.43e+06 M⁻¹ s⁻¹ | 630000 M⁻¹ s⁻¹ | 
8 | B8 | 3.1 h | 7.1 h | 0.04 nM | 6.2e-05 s⁻¹ | 0.034 nM | 2.7e-05 s⁻¹ |  |  |  | 1.54e+06 M⁻¹ s⁻¹ | 790000 M⁻¹ s⁻¹ | Kd [13]: ~0.04 nM
9 | B9 | 6.9 h | 10.1 h | 0.016 nM | 2.8e-05 s⁻¹ | 0.029 nM | 1.9e-05 s⁻¹ |  |  |  | 1.7e+06 M⁻¹ s⁻¹ | 650000 M⁻¹ s⁻¹ | 
10 | B10 | 10.1 h | 16 h | 0.011 nM | 1.9e-05 s⁻¹ | 0.019 nM | 1.2e-05 s⁻¹ | 4 fold molar excess of binder over TCE | 0.0263 nM | 0.0338 nM | 1.74e+06 M⁻¹ s⁻¹ | 630000 M⁻¹ s⁻¹ | Kd [14]: ~0.02 nM
